Laboratory results from paper PMC3237458, “PEGylation Potentiates the Effectiveness of an Antagonistic Peptide That Targets the EphB4 Receptor with Nanomolar Affinity” (PLoS ONE, 2011).
Several values for one entry are separate records, joined by “and”; a condition that tells them apart may be missing. Identical values can stand only once. Entries after “also recorded” stand apart in the source; their conditions may differ. Ends that are not written are not given here.

Assays:
[1] = Peptide stability in cell culture medium / conditioned medium (ELISA of functional peptide); assay type: in vitro ADME; conditions: up to 48 hours; 25 nM peptide; medium diluted 1:10; functional peptide by ELISA; 6–9 measurements; Figure 3A
Procedure: PC3 prostate cancer cells were grown in RPMI 1640 medium (Mediatech, Inc, Herndon, VA) with 10% fetal bovine serum (FBS) (Hyclone, Logan, UT), penicillin and streptomycin. B16-F10-luc-G5 melanoma cells (Caliper Life Sciences, Hopkinton, MA) were grown in Eagle's MEM with Earle's Balanced Salts (EBSS) (Hyclone, Logan, UT) supplemented with 10% FBS, non essential amino acids (Hyclone, Logan, UT), L-glutamine, sodium pyruvate (Hyclone, Logan, UT), MEM vitamin solution (Life Technologies-Invitrogen), penicillin and streptomycin (Omega Scientific, Tarzana, CA). HUVECs (Cascade Biologics, Portland, OG) were grown in Medium 200 supplemented with low serum growth supplements (Cascade Biologics), 10% FBS, penicillin and streptomycin, and fungizone (Omega Scientific, Tarzana, CA). Rat EMCs were grown in DMEM (Mediatech, Inc, Herndon, VA) supplemented with 10% FBS, penicillin and streptomycin. The different modified forms of TNYL-RAW at a concentration of 25 nM were added to fresh medium or culture medium conditioned by the cells for 1–4 days. The culture medium was collected after different time periods and diluted 1∶10 in ELISA wells. The amount of intact TNYL-RAW peptide remaining was measured by using the ELISA assays described above for measurement of binding affinity. In some experiments, the peptide was incubated at 37°C with PC3 cell conditioned medium collected from the cells in the absence or in the presence of protease inhibitors (10 µg/ml aprotinin, 5 µg/ml pepstatin, 10 µg/ml leupeptin and 0.75 mM or phenylmethylsulfonylfluoride (PMSF)).

[2] = Peptide retention in mouse blood circulation; assay type: in vivo; conditions: C57BL/6 mice, intravenous, serum ELISA, 3 mice, Figure 3C; for Circulation half-life (t1/2): 2.1 nmoles TNYL-RAW-Fc, 1.5 nmoles TNYL-RAW-streptavidin, 6 nmoles PEG-TNYL-RAW, non linear regression; for AUC: % of the injected dose•hours/ml
Procedure: 2.1 nmoles TNYL-RAW-Fc, 1.5 nmoles TNYL-RAW-streptavidin and 6 nmoles PEG-TNYL-RAW, diluted in 150 µl sterile PBS, were administered to C57BL/6 mice by intravenous or intraperitoneal injection. Blood was collected from each mouse from the orbital sinus at two time points after injection and by cardiac puncture under Avertin anesthesia at a third time point. These experiments were carried out in accordance with the recommendations in the Guide for the Care and Use of Laboratory Animals of the National Institutes of Health. The protocol was approved by the Institutional Animal Care and Use Committee of the Sanford-Burnham Medical Research Institute (Animal Assurance Number: A-3053-1). After collection, the blood was […], and the serum was stored at −20°C. The different forms of TNYL-RAW in the serum were detected by using the same ELISA assays described above for measurements of binding affinity. The absorbance from wells incubated with mouse serum without TNYL-RAW was subtracted as the background and the concentration of TNYL-RAW in the blood was calculated based on a standard curve generated using serum containing known TNYL-RAW concentrations. The half-life of each peptide was estimated by using non linear regression and the program Prism (GraphPad Software Inc.). The area under the curve (AUC) was expressed as % ID•hours/ml (where ID is the initial dose of peptide injected) and calculated by dividing the AUC value obtained using the program Prism by the amount of injected peptide and multiplying by 100.

EphB4 = molecular target: T1, EphB4 (Homo sapiens, UniProt P54760); assay: EphB4 activation by multimeric peptide forms (unpublished data); assay type: cell-based
T1 sequence (P54760 16-987): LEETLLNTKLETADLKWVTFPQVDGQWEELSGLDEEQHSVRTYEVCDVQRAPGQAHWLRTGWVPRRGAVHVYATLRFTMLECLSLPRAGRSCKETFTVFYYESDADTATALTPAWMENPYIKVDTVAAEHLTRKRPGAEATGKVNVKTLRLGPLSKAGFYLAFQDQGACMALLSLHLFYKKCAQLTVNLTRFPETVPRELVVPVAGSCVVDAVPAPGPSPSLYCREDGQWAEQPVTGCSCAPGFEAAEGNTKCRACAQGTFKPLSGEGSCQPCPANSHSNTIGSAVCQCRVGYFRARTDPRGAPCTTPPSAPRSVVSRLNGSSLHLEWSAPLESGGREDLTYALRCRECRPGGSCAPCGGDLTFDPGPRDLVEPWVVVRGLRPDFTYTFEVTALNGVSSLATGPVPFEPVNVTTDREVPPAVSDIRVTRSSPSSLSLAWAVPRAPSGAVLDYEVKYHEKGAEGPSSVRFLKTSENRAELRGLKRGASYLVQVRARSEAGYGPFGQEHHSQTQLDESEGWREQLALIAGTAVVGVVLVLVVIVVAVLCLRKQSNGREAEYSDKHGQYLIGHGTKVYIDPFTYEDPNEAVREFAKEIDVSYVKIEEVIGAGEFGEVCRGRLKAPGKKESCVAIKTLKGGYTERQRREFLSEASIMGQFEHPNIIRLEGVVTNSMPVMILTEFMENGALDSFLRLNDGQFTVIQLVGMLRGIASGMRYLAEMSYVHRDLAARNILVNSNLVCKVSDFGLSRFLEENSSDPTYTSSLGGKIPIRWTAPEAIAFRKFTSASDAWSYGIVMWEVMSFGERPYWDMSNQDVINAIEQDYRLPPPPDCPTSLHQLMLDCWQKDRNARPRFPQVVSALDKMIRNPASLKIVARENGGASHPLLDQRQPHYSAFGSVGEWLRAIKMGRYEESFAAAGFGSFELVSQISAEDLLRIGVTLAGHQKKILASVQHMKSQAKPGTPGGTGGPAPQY

[3] = Peptide stability in mouse serum ex vivo; assay type: in vitro ADME; conditions: undiluted mouse serum, 37°C, functional peptide by ELISA; Figures 1E, 3B

Activation of EphB4 (EphB4) | Substance | Degradation in PC3 cell conditioned medium [1] | Circulation half-life (t1/2) [2] | AUC [2] | Stability in mouse serum ex vivo [3]
unable to detectably activate EphB4 | TNYL-RAW-streptavidin: biotinylated TNYL-RAW in complex with streptavidin at molar ratio 4:1 | absence of peptide degradation | ~1 h and 1.3 h | 110 % ID-h/ml | much decreased degradation
unable to detectably activate EphB4 | TNYL-RAW-Fc: TNYL-RAW fused through a GSGSK linker to the Fc portion of human IgG1, from HEK 293 cells (TNYLFSPNGPIARAWGSGSK-{Fc (human IgG1)}; also: dimer) | absence of peptide degradation | ~1 h and 0.8 h | 140 % ID-h/ml | much decreased degradation; also recorded: not as stable in mouse serum as the streptavidin-bound or PEGylated peptide
